Measured values reported in patent US20190010233A1.
Where “and” joins values, the source holds several entries; their conditions need not be identical. Identical values can stand only once.

Tests used:
[1] = target: cyno PD-L1^ECD-hFc protein (cyno) (UniProt G7PSE7); assay: ELISA, 3 nM mAb
[2] = target: human PD-L1^ECD-hFc protein (human) (UniProt Q9NZQ7); assay: ELISA, 3 nM mAb
[3] = target: human PD-L1^ECD-hFc protein (human) (UniProt Q9NZQ7); assay: ELISA, 10 nM mAb
[4] = target: cyno PD-L1^ECD-hFc protein (cyno) (UniProt G7PSE7); assay: ELISA, 30 nM mAb
[5] = target: human PD-L1^ECD-hFc protein (human) (UniProt Q9NZQ7); assay: ELISA, 30 nM mAb
[6] = target: cyno PD-L1^ECD-hFc protein (cyno) (UniProt G7PSE7); assay: ELISA, 0.1 nM mAb
[7] = target: human PD-L1^ECD-hFc protein (human) (UniProt Q9NZQ7); assay: ELISA, 0.1 nM mAb
[8] = target: cyno PD-L1^ECD-hFc protein (cyno) (UniProt G7PSE7); assay: ELISA, 100 nM mAb
[9] = target: human PD-L1^ECD-hFc protein (human) (UniProt Q9NZQ7); assay: ELISA, 100 nM mAb
[10] = target: cyno PD-L1^ECD-hFc protein (cyno) (UniProt G7PSE7); assay: ELISA, 0.01 nM mAb
[11] = target: human PD-L1^ECD-hFc protein (human) (UniProt Q9NZQ7); assay: ELISA, 0.01 nM mAb
[12] = target: cyno PD-L1^ECD-hFc protein (cyno) (UniProt G7PSE7); assay: ELISA, 0.041 nM mAb
[13] = target: human PD-L1^ECD-hFc protein (human) (UniProt Q9NZQ7); assay: ELISA, 0.041 nM mAb
[14] = target: cyno PD-L1^ECD-hFc protein (cyno) (UniProt G7PSE7); assay: ELISA, 1.111 nM mAb
[15] = target: cyno PD-L1^ECD-hFc protein (cyno) (UniProt G7PSE7); assay: ELISA, 0.0003 nM mAb
[16] = target: human PD-L1^ECD-hFc protein (human) (UniProt Q9NZQ7); assay: ELISA, 0.0003 nM mAb
[17] = target: cyno PD-L1^ECD-hFc protein (cyno) (UniProt G7PSE7); assay: ELISA, 0.00003 nM mAb
[18] = target: human PD-L1^ECD-hFc protein (human) (UniProt Q9NZQ7); assay: ELISA, 0.00003 nM mAb
[19] = target: full length human PD-L1 on cells (human) (UniProt Q9NZQ7); assay: FACS CHO-K1-hPD-L1, 1 nM mAb
Sequence of full length human PD-L1 on cells (human) (Q9NZQ7 19-290 limits assumed): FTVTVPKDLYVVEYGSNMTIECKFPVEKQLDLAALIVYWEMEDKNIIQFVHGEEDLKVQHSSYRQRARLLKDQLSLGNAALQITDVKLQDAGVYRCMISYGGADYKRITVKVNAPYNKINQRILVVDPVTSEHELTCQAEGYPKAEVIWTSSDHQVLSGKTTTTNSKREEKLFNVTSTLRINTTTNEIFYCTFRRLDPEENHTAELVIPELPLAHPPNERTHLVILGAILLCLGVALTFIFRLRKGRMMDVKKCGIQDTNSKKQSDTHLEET

[20] = target: full length cyno PD-L1 on cells (cyno) (UniProt G7PSE7); assay: FACS CHO-K1-cPD-L1, 1 nM mAb
Sequence of full length cyno PD-L1 on cells (cyno) (G7PSE7 entry or part of it limits assumed): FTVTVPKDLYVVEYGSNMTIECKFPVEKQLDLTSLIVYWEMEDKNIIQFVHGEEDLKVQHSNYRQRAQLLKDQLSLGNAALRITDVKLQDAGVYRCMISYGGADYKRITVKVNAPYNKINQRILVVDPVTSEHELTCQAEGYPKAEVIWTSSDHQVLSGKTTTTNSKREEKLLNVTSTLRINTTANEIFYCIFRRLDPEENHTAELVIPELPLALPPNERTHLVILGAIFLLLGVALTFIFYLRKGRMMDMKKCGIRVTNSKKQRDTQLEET

[21] = target: full length cyno PD-L1 on cells (cyno) (UniProt G7PSE7); assay: FACS CHO-K1-cPD-L1, 3 nM mAb
[22] = target: full length cyno PD-L1 on cells (cyno) (UniProt G7PSE7); assay: FACS CHO-K1-cPD-L1, 10 nM mAb
[23] = target: full length human PD-L1 on cells (human) (UniProt Q9NZQ7); assay: FACS CHOK1-hPD-L1, 0.3 nM mAb
[24] = target: full length human PD-L1 on cells (human) (UniProt Q9NZQ7); assay: FACS CHOK1-hPD-L1, 300 nM mAb
[25] = target: full length human PD-L1 on cells (human) (UniProt Q9NZQ7); assay: FACS CHO-K1-hPD-L1, 0.1 nM mAb
[26] = target: full length cyno PD-L1 on cells (cyno) (UniProt G7PSE7); assay: FACS CHO-K1-cPD-L1, 0.1 nM mAb
[27] = target: full length human PD-L1 on cells (human) (UniProt Q9NZQ7); assay: FACS CHOK1-hPD-L1, 0.03 nM mAb
[28] = target: full length cyno PD-L1 on cells (cyno) (UniProt G7PSE7); assay: FACS CHO-K1-cPD-L1, 0.3 nM mAb
[29] = target: full length cyno PD-L1 on cells (cyno) (UniProt G7PSE7); assay: FACS CHO-K1-cPD-L1, 0.01 nM mAb
[30] = target: full length cyno PD-L1 on cells (cyno) (UniProt G7PSE7); assay: FACS CHO-K1-cPD-L1, 0.41 nM mAb
[31] = target: full length human PD-L1 on cells (human) (UniProt Q9NZQ7); assay: FACS CHOK1-hPD-L1, 0.003 nM mAb
[32] = target: full length cyno PD-L1 on cells (cyno) (UniProt G7PSE7); assay: FACS CHO-K1-cPD-L1, 0.03 nM mAb
[33] = target: full length cyno PD-L1 on cells (cyno) (UniProt G7PSE7); assay: FACS CHO-K1-cPD-L1, 0.001 nM mAb
[34] = target: full length cyno PD-L1 on cells (cyno) (UniProt G7PSE7); assay: FACS CHO-K1-cPD-L1, 11.11 nM mAb
[35] = target: full length human PD-L1 on cells (human) (UniProt Q9NZQ7); assay: FACS CHOK1-hPD-L1, 0.0003 nM mAb
[36] = target: full length cyno PD-L1 on cells (cyno) (UniProt G7PSE7); assay: FACS CHO-K1-cPD-L1, 0.003 nM mAb
[37] = target: full length cyno PD-L1 on cells (cyno) (UniProt G7PSE7); assay: FACS CHO-K1-cPD-L1, 100.00 nM mAb
[38] = target: hPD-L2 (human) (UniProt Q9BQ51); assay: ELISA, mAb concentration not given
Sequence of hPD-L2 (human) (Q9BQ51 20-219 limits assumed): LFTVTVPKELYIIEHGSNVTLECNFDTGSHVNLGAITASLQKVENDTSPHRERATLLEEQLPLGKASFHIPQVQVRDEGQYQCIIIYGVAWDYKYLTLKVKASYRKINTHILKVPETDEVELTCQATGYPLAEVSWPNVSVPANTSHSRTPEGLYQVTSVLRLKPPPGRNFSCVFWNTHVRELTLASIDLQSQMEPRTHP

[39] = target: human PD-L1^ECD-hFc protein (human) (UniProt Q9NZQ7); assay: ELISA, mAb concentration not given
[40] = target: full length cyno PD-L1 on cells (cyno) (UniProt G7PSE7); assay: FACS CHO-K1-cPD-L1, 0.001 nM mAb as printed (second such column)

Sequence of cyno PD-L1^ECD-hFc protein (cyno) (G7PSE7 entry or part of it limits assumed): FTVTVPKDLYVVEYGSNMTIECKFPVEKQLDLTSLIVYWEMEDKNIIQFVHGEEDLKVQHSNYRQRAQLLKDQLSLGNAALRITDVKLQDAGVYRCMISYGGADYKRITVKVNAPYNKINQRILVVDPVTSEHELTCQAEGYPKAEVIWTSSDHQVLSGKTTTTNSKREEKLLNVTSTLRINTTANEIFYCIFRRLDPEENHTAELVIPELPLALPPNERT
Sequence of human PD-L1^ECD-hFc protein (human) (Q9NZQ7 19-239): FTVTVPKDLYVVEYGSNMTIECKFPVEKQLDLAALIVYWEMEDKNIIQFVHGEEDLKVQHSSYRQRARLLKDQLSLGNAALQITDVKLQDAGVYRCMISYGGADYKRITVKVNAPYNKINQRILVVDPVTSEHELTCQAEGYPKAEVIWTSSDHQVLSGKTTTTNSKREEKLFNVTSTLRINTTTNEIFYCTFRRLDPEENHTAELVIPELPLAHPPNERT

- OD450 nm [1]: 0.282
- OD450 nm [2]: 0.277
- OD450 nm [3]: 0.15
- OD450 nm [4]: 0.12
- OD450 nm [5]: 0.315
- OD450 nm [6]: 0.0967
- OD450 nm [7]: 0.149
- OD450 nm [8]: 0.398
- OD450 nm [9]: 0.767
- OD450 nm [10]: 0.0987
- OD450 nm [11]: 0.154
- OD450 nm [12]: 0.11
- OD450 nm [13]: 0.11
- OD450 nm [14]: 0.16
- OD450 nm [15]: 0.273
- OD450 nm [16]: 0.338
- OD450 nm [17]: 0.31
- OD450 nm [18]: 0.296
- Mean fluorescence intensity [19]: 2.51
- Mean fluorescence intensity [20]: 1.83
- Mean fluorescence intensity [21]: 3.91
- Mean fluorescence intensity [22]: 1.95
- Mean fluorescence intensity [23]: 3.16
- Mean fluorescence intensity [24]: 4.86
- Mean fluorescence intensity [25]: 2.55
- Mean fluorescence intensity [26]: 2.2
- Mean fluorescence intensity [27]: 2.92
- Mean fluorescence intensity [28]: 3.73
- Mean fluorescence intensity [29]: 1.87
- Mean fluorescence intensity [30]: 2.69
- Mean fluorescence intensity [31]: 3.03
- Mean fluorescence intensity [32]: 3.79
- Mean fluorescence intensity [33]: 1.9
- Mean fluorescence intensity [34]: 2.93
- Mean fluorescence intensity [35]: 2.79
- Mean fluorescence intensity [36]: 3.62
- Mean fluorescence intensity [37]: 3.33 and 8.11
- OD450 nm [38]: 0.189
- OD450 nm [39]: 0.206
- Mean fluorescence intensity [40]: 7.33
Substance: IgG control (human IgG) (antibody)
